# Assay results: the DeepSol protein solubility set
# Assay: soluble on expression in E. coli; label from the status in PepcDB or PDB records
row,Sequence,soluble on expression in E. coli
1,MDQNRGSDVGFAVPMLPVNYASATQKMSTLASTSSAGASSSTGSSNQQQQQAAAVIRRRRFSTAKIQPTRIKKVMQSDEDIGRMVQSVPVSIGRAMEHFAEKFLQAAAEATQFTSSKTLNPQHMKQAVLNTPHFSFLESVFKDVALPQQASELNTARTGMTLRGQQMLQEQQNSDFASAILANAQMQMMQMDQQALKQEDGTISPYLVDPQSPAAPLPLYLQGIPSNYPVVQELTATVPLSPSTPTTQLVNGMLGMLKYSKKDSEGQRLTGLKRASTDGDGEDRPKRGRPKKLKPEKCIDDDLYEEASRNIAKEDKDRELMPPPALPIGRP,not soluble
2,MANRMILNETAWFGRGAVDALTDEVTRRGYHKALIVTDKTLVQCGVVDKVTSRMDAAGLAWEIYAGVIPNPTISVVQEGLKVFTQSGADYLIAIGGGSPQDTCKAIGIISNNPEFADVRSLEGLSPTRKPSVPIMAIPTTAGTAAEVTINYVITDEEKRRKFVCVDPHDIPQAAFIDADMMDGMPPALKAATGVDALTHAIEGYITRAAWALTDALHIKAIEIIAGALRGAVAGEKEAGEAMALGQYVAGMGFSNVGLGLVHGMAHPLGAFYNTPHGVANAILLPHVMRFNAGSTNEKFRDIARAMGVKVEGLSLEEARNAAVEAVFTLNRDVGIPLHLRDVGVRKEDIPALAQAAFDDVCTGGNPREASLADIVELYHTAW,not soluble
3,MKKIQTPNAKGEVRIIAGLWRGRKLPVLNSEGLRPTGDRVKETLFNWLMPYIHQSECLDGFAGSGSLGFEALSRQAKKVTFLELDKTVANQLKKNLQTLKCSSEQAEVINQSSLDFLKQPQNQPHFDVVFLDPPFHFNLAEQAISLLCENNWLKPNALIYVETEKDKPLITPENWTLLKEKTTGIVSYRLYQNLEHHHHHH,soluble
4,AHHHHHHGSRPKVGVLLKMKREALEELEKYAEVEVIPYPSEEELKNKIHEFDGIIVSPVTKITKDVLEKAERLKVISCHSAGYDHIDVEEATRKGIYVTKVSGLLSEAVAEFAVGLLINLMRKIHYADKLIRRGEWESHVKIWTGFKGIESLYGKKVGILGMGAIGKAIARRLIPFGVELYYWSRHRKVDVESELHATYMDIDELLEKSDIVILALPLTKDTYHIINEERVKKLEGKYLVNIGRGALVDERAITEAIKQGKLKGYATDVFENEPVREHELFKYEWETVLTPHYAGLAVEAQEDVGFRAVENLISIFRGIVPEDLVNKEVLKIRPIESVKML,not soluble
5,SAPAPPSGWSQVFLDDFDGAAGSSVNTANWQFDTGTSYPGGAGNWGTGEVESMTSSTSNVSLDGNGDLLITPRRDASGNWTSGRIETTRTDFQPPAGGKLRVEARLQMPNVTGDAAAGYWPAFWMLGAPFRGNYQNWPGVGELDIMENVQGLNKTWATMHCGTSPGGPCNETSGIGNSTACPNTTCQSGFHTYTMEWDRSVSPEAIRFSVDGVTYQTVTANQMDAATWTNATNHGFFVILNVAMGGGFPGAFGGGPTGATEPGHPMVVDYVQVTSLSPGL,soluble
6,TPMRSPIIWINGPFGVGKTHTAHTLHERLPGSFVFEPEEMGQALRKLTPGFSGDPQEHPMWIPLMLDALQYASREAAGPLIVPVSISDTARHRRLMSGLKDRGLSVHHFTLIAPLNVVLERLRRDGQPQVNVGTVEDRLNELRGEQFQTHIDTAGLGTQQVAEQIAAQVGLTLAPPPQGALHW,soluble
7,MSLKTLSLCPICLKRIPATILEEDGKIIIKKTCPEHGEFKDIYWGDAELYKKFDKYEFIGKIEVTNTKVKNGCPYDCGLCPNHKSTTILANIDVTNRCNLNCPICFANANKSGKVYEPSFEDIKRMMENLRKEIPPTPAIQFAGGEPTVRSDLPELIKLARDMGFLHVQLATNGIKLKNINYLKKLKEAGLSTIYLQFDGISEKPYLVARGKNLLPIKQKVIENCKKVGFDSVVLVPTLVRGVNDNEVGGIIRYAAENVDVVRGINFQPVSFTGRVDEKTLLEGRITIPDFIKLVEEQTDGEITEEDFYPVPSVAPISVLVEKLTNDRKPTLSSHQHCGTSTYVFVDEDGKLIPITRFIDVEGFLEIVKEKIEEIGKSKMHDVKVLGEIALKLPSLIDLDKAPKSVNIKKIIDLILSVLKSDYSALAELHYHMLMISCMHFMDAYNFDVKRVMRCCIHYATPDDRIIPFCTYNTLHRQEVEEKFSIPLEEWKRMHKIGGEDDREDYEGHHHHHH,soluble
8,MSLGIPKHDFYLYQSQWVSVKKKPMVHLLPHWNWENKELASKVADSEGKIPVRAYSNASSVELFLNGKSLGLKTFNKKQTSDGRTYQEGANANELYLEWKVAYQPGTLEAIARDESGKEIARDKITTAGKPAAVRLIKEDHAIAADGKDLTYIYYEIVDSQGNVVPTANNLVRFQLHGQGQLVGVDNGEQASRERYKAQADGSWIRKAFNGKGVAIVKSTEQAGKFTLTAHSDLLKSNQVTVFTGKKEGQEKTVLGTEVPKVQTIIGEAPEMPTTVPFVYSDGSRAERPVTWSSEGHHHHHH,soluble
9,MSQLVLDLKCLKDKIATNYDIHNNVYGGNGMEPNIIHPSKRFRIVVRLVDFLFCKSDEEFIKGFFCQMIVRNLHCLNSTNGAEEMRLYMSERLFSAHKDDLRLINGQVLDVRIGVWYGIHQSPPIFEIIDFKILSRNDVRDFCEFVKSPLGEKFLNISNS,not soluble
10,LISPDVDIEEITTRILEEAMGLTGSEQGFVATIDPLSRTLVIHTFSSMMDCLWQGGEEGRRILFPPGQDGSYPTLWGHSLNTKCPFYTNDPAGHPSAVGVPHGHIPLRHFLSVPVMLGDEVVAQISLANPGRDYTERDLEAIGRVAKFFALAIQRMRAEESIR,not soluble
11,MAGCSMMKVDRTFPDLKEIPVDLATRFRQMIEWLEIANSECRLTPYKKISHIYQIFHSQGVLECLFRRGEDDISFMIEASVYLLDHPLDGSRSSSPTICDFAGVLPTIFVTFRNKRLGTMVSGASVEFMEFAHHIQEHIHRTSFPEIRTAEIHKISLIDVRFGNMDRNAKNIIVKVEDNIPHFVPIDHEMCFINTGQNYNLCKPYWLSLEDSSIYEA,soluble
12,MLSTNNITMQFGSKPLFENISVKFGGGNRYGLIGANGCGKSTFMKILGGDLVPSGGNVFLDPNERLGKLRQDQFAFENNTVLDTVIMGHGELWEVKEERDRIYAMAEMSEEDGYKVADLEVAYGEMDGYSAEARAGELLLGVGIPVEQHYGLMSEIAPGWKLRVLLAQALFSDPEILLLDEPTNNLDIDTIRWLEQVLNERNSTMIIISHDRHFLNMVCTHMADLDYGELRVYPGNYDEYMTAATQARERLLSDNAKKKAQISELQSFVSRFSANASKSKQATSRARQIDKIQLDEVKASSRQNPFIRFDQDRKLFRNALEVEMLTKGFDNGPLFKNLTLRLEVGEKVAILGPNGIGKSTLLKTLLGEYESDAGTVKWSENSKIGYYAQDHASDFDIDLTVFDWMSQWKQEKDDEQAVRSVLGRLLFSQDDIKKKVSVLSGGEKGRMLFGKLMMQRPNILVMDEPTNHLDMESIESLNMALEMYEGTLIFVSHDREFVSSLATRVIEMTPNKLIDFTGNYEDYLSSQGIHS,not soluble
13,MGSDKIHHHHHHMSDCQAKPETNYLSTSSGKYLTAFQRKLLLQNLQKSLVESYRQRIEIMLLADEGKTQRSICQTLGCCAATARHWTHIARSGMAHQWQDCPIGRPKAVNDQYLERLKELVNSSPRAHGYAFRRWTANWLGKHLAKEFGIEVSDRHIKRLLKQMGLSTLPKPSNVEQNSTEQVQGSKILICDLQSAGIPDDSEFLPINFAKLGKHLDIHGAKYICSVAYSATVQQYSGSFSFYRGISTLSSTS,not soluble
14,MIHVGTCGFCEAREKYFKDFDAVEVQQTFYKVLQEKTLERWRKKAPEEFTFSIKAFQGVTHPSNSPTWRRSNVKPSKNVGLLRPTNEVLHYWRITLKEAKVLGARFILIQLPRSFKEGEESFENAEKFFNAIDRGDFEIGVELRGWSEKGVKRFVREFDVIDVTDPLLRIPLHKGSVNYYRLHGKYEGGKIIYNHSYSDEELKKIRERVLGWNVEESFVFFNNTSMCRDAKRFKLILDLH,soluble
15,MIETAIYGKTVDDQSRCVHWHLPKDVIAIRFKCCDKYYACFECHQELSSHPLEKYDLLDDANKHLIICGVCRHEMTFAEYYDYNSNLICPNCRSPFNPGCKLHYHLYFQNPPPAMC,not soluble
16,GPAIAENLYFQSPNPRPGKPSAPSLALGPSPGASPSWRAAPKASDLLGARGPGGTFQGRDLRGGAHASSSSLNPMPPSQLQLPTLPLVMVAPSGARLGPLPHLQALLQDRPHFMHQLSTVDAHARTPVLQVHPLESPAMISLTPPTTATGVFSLKARPGLPPGINVASLEWVSREPALLCTFPNPSAPRKDSTLSAVPQSSYPLLANGVCKWPGCEKVFEEPEDFLKHCQADHLLDEKGRAQCLLQREMVQSLEQQLVLEKEKLSAMQAHLAGKMALTKASSVASSDKGSCCIVAAGSQGPVVPAWSGPREAPDSLFAVRRHLWGSHGNSTFPEFLHNMDYFKFHNMRPPFTYATLIRWAILEAPEKQRTLNEIYHWFTRMFAFFRNHPATWKNAIRHNLSLHKCFVRVESEKGAVWTVDELEFRKKRSQRPSRCSNPTPGP,soluble
17,MSLRALFDALTPKQARIAAILKREGGLQLTITCREYYHLRDMLEQYKVDYICIGRYGETTEEKLVEGLKRQLQMVEIMRGLDGVVSFPSPDAVRTAFGLGKKSVVLNDTPHAYHANSLTIPLSDALIAPSAIPQDAWRRYCPKKVMTFDGVFEYMWTSRHTPNLESVRKLGLEPGSYVVFRPEEAKAAYYQWNNVQLRAKLVELVKEMGYVVVNIPRYPDQVIEGAINLIKAVDHLDLAYYAAAVITGGLTMSTEAALLGTPAVSYFPGDVYIDRYLERAGAPLLRCSSMDECIHVVKKALSMGRAPPPKMEDPLKAIVAAVQEIFGGEGHHHHHH,soluble
18,EVKLQESGAGLVQPSQSLSLTCSVTGYSITSGYYWNWIRLFPGNKLEWVGYISNVGDNNYNPSLKDRLSITRDTSKNQFFLKLNSVTTEDTATYYCARSEYYSVTGYAMDYWGQGTTVTVSSAWRHP,soluble
19,MGSDKIHHHHHHMKWRGYLTPVTENYLHAYGVGYISYVLARKFHVDSVKAFVTGTLHDLGGAVPADERVTVAESIGISLNDEEREVPLLVHAKLGKYFAQTLFDITDEDMLNAILFHTTCIDRASDLVKIVFLADKIRWDRNGTPPYLDGLLAALEISLDDGCSYFLKWLWNSDLYIVHPYLSRSYGAYVRQQQYNPISLQDFSVLQGNLNENLVKKYYLHDIYQEFHRTFYHAHLASVLASKHSVNTEEAYVTSALVNMTNTIKDDELETIASVLNLNVQVPIRPQLTSILARDEYGITSLEMLKTLKSFPQIPSNHNSLLWVVVMSWICQKSIKCEVEDE,not soluble
20,MQEEVNEKTVSLCITGGKVTARLLKQAMMRFLAAMEKEKAEKARKQQVKGPPDKDYHGKQSLKKLAQQNVQLSNIEITDNNIKAFEKVAKKYGIDFSLKRDKSVDPPRYFVFFKARDVDVMTAAFREFTGKTLNKTKKPSVRKKLQQAIAARSQDKQREREKSKEKQKEPTL,not soluble
21,DGNEIIGDPLRKAAKLIDKGYIVAIKGIGGIHLACDATREDVVAELRKRIFRPQKPFAIMAKDLETVRTFAYISPEEEEELTSYRRPIVALKKKEPFPLPENLAPGLHTIGVMLPYAGTHYILFHWSKTPVYVMTSANFPGMPMIKDNEEAFEKLRDVADYLLLHNRRIPNRADDSVVRFVDGRRAV,not soluble
